Test results taken from publication PMC11025564 (The journal of physical chemistry. B, 2018).

T1: integrin β3(P685-F727) TM peptide C687S W715Y (human, UniProt P05106 711-753, C687S | W715Y)
T1 chain (looked up): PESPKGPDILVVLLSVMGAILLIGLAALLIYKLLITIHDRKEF

T2: integrin β3(P685-F727) TM peptide C687S W715A (human, UniProt P05106 711-753, C687S | W715A)
T2 chain (looked up): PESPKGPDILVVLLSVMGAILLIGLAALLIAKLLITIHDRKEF

T3: integrin β3(P685-F727) TM peptide C687S W715H (human, UniProt P05106 711-753, C687S | W715H)
T3 chain (looked up): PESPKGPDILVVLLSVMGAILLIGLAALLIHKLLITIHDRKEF

T4: human integrin β3(P685-F727) TM peptide incorporating β3(C687S) (human, UniProt P05106 711-753, C687S)
T4 chain (looked up): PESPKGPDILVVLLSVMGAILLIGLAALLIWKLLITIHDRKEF

T5: integrin β3(P685-F727) TM peptide C687S W715I (human, UniProt P05106 711-753, C687S | W715I)
T5 chain (looked up): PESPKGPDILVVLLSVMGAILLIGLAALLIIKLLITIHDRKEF

T6: integrin β3(P685-F727) TM peptide C687S W715F (human, UniProt P05106 711-753, C687S | W715F)
T6 chain (looked up): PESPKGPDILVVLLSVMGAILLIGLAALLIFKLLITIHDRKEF


Experiments:
[1] = target: T1, integrin β3(P685-F727) TM peptide C687S …; test: ITC
[2] = target: T2, integrin β3(P685-F727) TM peptide C687S …; test: ITC
[3] = target: T3, integrin β3(P685-F727) TM peptide C687S …; test: ITC
[4] = target: T4, human integrin β3(P685-F727) TM peptide …; test: ITC
[5] = target: T5, integrin β3(P685-F727) TM peptide C687S …; test: ITC
[6] = target: T6, integrin β3(P685-F727) TM peptide C687S …; test: ITC
[7] = target: T4, human integrin β3(P685-F727) TM peptide …; test: intrinsic tryptophan fluorescence emission
[8] = target: T5, integrin β3(P685-F727) TM peptide C687S …; test: intrinsic tryptophan fluorescence emission

| Binder | KXY (association equilibrium constant on the mole fraction scale) [4] | dH [4] [kcal/mol] | also measured |
| --- | --- | --- | --- |
| human integrin αIIb(A958-P998) TM peptide (peptide) not shown | 3250 ± 60 | -16 ± 0.1 | KXY (association equilibrium constant on the mole fraction scale) [1]: 1320 ± 40; dH [1]: -14.2 ± 0.2 kcal/mol; KXY (association equilibrium constant on the mole fraction scale) [2]: 1300 ± 40; dH [2]: -15.5 ± 0.3 kcal/mol; KXY (association equilibrium constant on the mole fraction scale) [3]: 820 ± 40; dH [3]: -8.7 ± 0.2 kcal/mol; KXY (association equilibrium constant on the mole fraction scale) [5]: 2600 ± 70; dH [5]: -9.6 ± 0.1 kcal/mol; KXY (association equilibrium constant on the mole fraction scale) [6]: 2230 ± 50; dH [6]: -17.2 ± 0.2 kcal/mol |
| ALEERAIPIVVVLVGVLGGLLLLTILVLAMHKVGFFKRNRP (peptide, UniProt P08514 989-1029, looked up) [integrin αIIb(A958-P998) TM peptide W967V/W968V/W988H] |  |  | binding result [7]: binds |
| integrin αIIb(A958-P998) TM peptide W967V (peptide) not shown | 4450 ± 80 | -13.1 ± 0.1 |  |
| integrin αIIb(A958-P998) TM peptide W967F (peptide) not shown | 4030 ± 90 | -12.6 ± 0.1 |  |
| ALEERAIPIWWVLVGVLGGLLLLTILVLAMHKVGFFKRNRP (peptide, UniProt P08514 989-1029, looked up) [integrin αIIb(A958-P998) TM peptide W988H] | 3540 ± 40 | -16.4 ± 0.1 |  |
| ALEERAIPIWWVLVGVLGGLLLLTILVLAMAKVGFFKRNRP (peptide, UniProt P08514 989-1029, looked up) [integrin αIIb(A958-P998) TM peptide W988A] | 3320 ± 70 | -17.3 ± 0.1 |  |
| ALEERAIPIYVVLVGVLGGLLLLTILVLAMWKVGFFKRNRP (peptide, UniProt P08514 989-1029, looked up) [integrin αIIb(A958-P998) TM peptide W967Y/W968V] | 9800 ± 400 | -14 ± 0.2 |  |
| ALEERAIPIAVVLVGVLGGLLLLTILVLAMWKVGFFKRNRP (peptide, UniProt P08514 989-1029, looked up) [integrin αIIb(A958-P998) TM peptide W967A/W968V] | 6400 ± 200 | -18.4 ± 0.2 |  |
| ALEERAIPIWWVLVGVLGGLLLLTILVLAMYKVGFFKRNRP (peptide, UniProt P08514 989-1029, looked up) [integrin αIIb(A958-P998) TM peptide W988Y] | 2320 ± 50 | -19.2 ± 0.2 |  |
| ALEERAIPIWWVLVGVLGGLLLLTILVLAMFKVGFFKRNRP (peptide, UniProt P08514 989-1029, looked up) [integrin αIIb(A958-P998) TM peptide W988F] | 1000 ± 20 | -16.4 ± 0.2 |  |
| ALEERAIPIWVVLVGVLGGLLLLTILVLAMWKVGFFKRNRP (peptide, UniProt P08514 989-1029, looked up) [integrin αIIb(A958-P998) TM peptide W968V] | 13200 ± 600 | -14.3 ± 0.2 |  |
| ALEERAIPIWWVLVGVLGGLLLLTILVLAMVKVGFFKRNRP (peptide, UniProt P08514 989-1029, looked up) [integrin αIIb(A958-P998) TM peptide W988V] | 2900 ± 100 | -13.7 ± 0.2 |  |
| ALEERAIPIVVVLVGVLGGLLLLTILVLAMWKVGFFKRNRP (peptide, UniProt P08514 989-1029, looked up) [integrin αIIb(A958-P998) TM peptide W967V/W968V] | 2680 ± 60 | -17.8 ± 0.2 |  |
| ALEERAIPIFVVLVGVLGGLLLLTILVLAMWKVGFFKRNRP (peptide, UniProt P08514 989-1029, looked up) [integrin αIIb(A958-P998) TM peptide W967F/W968V] | 6500 ± 200 | -15.7 ± 0.2 |  |
| integrin αIIb(A958-P998) TM peptide W967Y (peptide) not shown | 4700 ± 100 | -13.7 ± 0.2 |  |
| integrin αIIb(A958-P998) TM peptide W967H (peptide) not shown | 2530 ± 50 | -15.4 ± 0.1 |  |
| ALEERAIPIVWVLVGVLGGLLLLTILVLAMHKVGFFKRNRP (peptide, UniProt P08514 989-1029, looked up) [integrin αIIb(A958-P998) TM peptide W988H/W967V] |  |  | binding result [8]: binds |
| ALEERAIPIHVVLVGVLGGLLLLTILVLAMWKVGFFKRNRP (peptide, UniProt P08514 989-1029, looked up) [integrin αIIb(A958-P998) TM peptide W967H/W968V] | 7000 ± 200 | -14.9 ± 0.2 |  |
